Source: patent US20160030526A1

Assays:
[1] = target: human CD25 (human IL-2 receptor) on human CD25+ T-cell lymphoma cells HUT 102/6TG (human) (UniProt P01589)
[2] = target: human CD25 (human IL-2 receptor) on human CD25+ T-cell lymphoma cells HUT 102/6TG (human) (UniProt P01589); test: cell-based or functional assay
[3] = target: human CD25 (human IL-2 receptor) on human CD25+ T-cell lymphoma cells HUT 102/6TG (human) (UniProt P01589); test: flow cytometry on HUT 102/6TG cells

Chain of human CD25 (human IL-2 receptor) on human CD25+ T-cell lymphoma cells HUT 102/6TG (human) (P01589 22-272): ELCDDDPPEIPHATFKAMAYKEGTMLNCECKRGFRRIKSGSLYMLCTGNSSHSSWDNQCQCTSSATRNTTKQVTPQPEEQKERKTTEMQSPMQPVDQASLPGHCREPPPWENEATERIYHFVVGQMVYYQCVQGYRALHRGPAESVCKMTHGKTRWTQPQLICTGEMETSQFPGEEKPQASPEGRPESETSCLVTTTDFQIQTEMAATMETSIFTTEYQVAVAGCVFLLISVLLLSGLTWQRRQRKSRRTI

| Substance | Kd [1] | IC50 of protein synthesis inhibition (3H-leucine) in HUT 102/6TG cells [2] | affinity against the monovalent isoform (DT390-hIL-2) [3] |
| --- | --- | --- | --- |
| monovalent human IL-2 fusion toxin (DT390-hIL-2-6xHis) (other; other documents disagree on this pair) | 15.9 nM |  |  |
| monovalent human IL-2 fusion toxin (DT390-hIL-2-6xHis) |  | 20 pM |  |
| bivalent human IL-2 fusion toxin (DT390-bi-hIL-2-6xHis) |  | 0.2 pM |  |
| bivalent human IL-2 fusion toxin (DT390-bi-hIL-2-6xHis) (other; other documents disagree on this pair) | 0.21 nM |  | 2 logs |
